Data on 4 molecules can be found in article PMC10154332, “Mirror proteorhodopsins” (Communications Chemistry, 2023).

Data set [1] concerns the target Sphingomonas paucimobilis rhodopsin (SpaR) (Sphingomonas paucimobilis). Briefly: SEC; DDM-solubilized SpaR at five pH values (4.4, 5.4, 6.4, 7.4, 8.4); at pH 4.4 only a single trimer peak, further peaks of higher molecular weight with increasing pH. In general terms: SEC sorts molecules by how far they enter the pores of the column.
Data set [2] shares this target. The data set is described as follows: SAXS; solubilized SpaR ~5 mg/ml in 100 mM NaCl, 0.5 mM EDTA, 0.01% NaN3, 20 mM TRIS(HCl) pH 7.2, 0.05% DDM; profile 0.04-0.26 1/A fitted with MEMPROT (detergent corona), trimer against monomer model.
Data set [3] shares this target. Briefly: crystal structure; in meso (monoolein) crystals, 0.78 M NaH2PO4/K2HPO4 pH 5.2, 22 °C; space group C2; 2.8 Å.
Data set [4] deals with T1, SpaR (Sphingomonas paucimobilis rhodopsin) (Sphingomonas paucimobilis, UniProt A0A411LJN5).
T1 construct: gene HKX06_19670; E. coli C41(DE3) codon-optimised gene in pET32b (NdeI/XhoI), C-terminal His tag, DDM-solubilised, Ni-NTA and SEC; trimer
T1 sequence (A0A411LJN5 1-237): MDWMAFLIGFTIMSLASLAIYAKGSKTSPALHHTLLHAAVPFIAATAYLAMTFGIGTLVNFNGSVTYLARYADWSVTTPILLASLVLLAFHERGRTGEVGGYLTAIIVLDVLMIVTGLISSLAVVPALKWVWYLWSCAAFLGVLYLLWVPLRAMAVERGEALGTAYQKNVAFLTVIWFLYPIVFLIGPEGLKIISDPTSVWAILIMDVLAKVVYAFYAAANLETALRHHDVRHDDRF
Briefly: X-ray crystallography, in meso crystals, […] A. The following applies: covalent Schiff base to K211; crystals at pH 5.2. It is filed as binding.

Data set [5] deals with Asp73 (position 73, …). Briefly: UV-vis. The following applies: 150 mM NaCl, 50 mM MES, Dark (ground) state, DDM-solubilised.
Data set [6] addresses Asp97 (UniProt position 97, …). The following applies: cited from earlier work.

As to “Sphingomonas paucimobilis rhodopsin (SpaR) (natural protein)”, the stoichiometry N in data set [1], in data set [2] and in data set [3] was 3 throughout.
Regarding `CC1=C(/C=C/C(C)=C/C=C/C(C)=C/C=O)C(C)(C)CCC1` [retinal], in data set [4], the “X-ray crystallography, in meso crystals, 2.8 A” value is listed as “the retinal co-factor is covalently bound to the K211 residue of the helix G”.

B1: SpaR (Sphingomonas paucimobilis rhodopsin, mirror proteorhodopsin) (Sphingomonas paucimobilis) (protein)
chain: MDWMAFLIGFTIMSLASLAIYAKGSKTSPALHHTLLHAAVPFIAATAYLAMTFGIGTLVNFNGSVTYLARYADWSVTTPILLASLVLLAFHERGRTGEVGGYLTAIIVLDVLMIVTGLISSLAVVPALKWVWYLWSCAAFLGVLYLLWVPLRAMAVERGEALGTAYQKNVAFLTVIWFLYPIVFLIGPEGLKIISDPTSVWAILIMDVLAKVVYAFYAAANLETALRHHDVRHDDRF
On to B1, for which the pKa (in general, the pH at which an ionisable group is half protonated) in data set [5] (5 mM ZnCl2, in the presence of 5 mM Zn2+) came out at 0.98±0.01; in data set [5] (no Zn2+), 1.03±0.01.

B2: Green proteorhodopsin (PR) (uncultured marine gamma proteobacterium (printed as 'Gamma-proteobacterium')) (protein)
chain: MKLLLILGSVIALPTFAAGGGDLDASDYTGVSFWLVTAALLASTVFFFVERDRVSAKWKTSLTVSGLVTGIAFWHYMYMRGVWIETGDSPTVFRYIDWLLTVPLLICEFYLILAAATNVAGSLFKKLLVGSLVMLVFGYMGEAGIMAAWPAFIIGCLAWVYMIYELWAGEGKSACNTASPAVQSAYNTMMYIIIFGWAIYPVGYFTGYLMGDGGSALNLNLIYNLADFVNKILFGLIIWNVAVKESSNA
With B2, in data set [6], the pKa was 7.68.
